These results are taken from publication PMC9894260 (Proceedings of the National Academy of Sciences of the …, 2022).

B1: ARPC4 (subunit of fission yeast Arp2/3 complex) (natural protein)
chain: not shown
B2: ARPC2 (subunit of fission yeast Arp2/3 complex) (natural protein)
chain: MLSLDYNNIFIYELLTERFSSENPSSIDQVVTDFDGVTFHISTPEEKTKILISLSMKCYPELVNYGTLDLLKQIYGAYVHEPEMGYNFSILIDLQQLPATDEEKEQLAMSISMLKRNVLAAPFHRAFTKQAELADLARKDPENAPMLDKQATSQELMAIHYRDEETIVLWPEHDRVTVVFSTKFREETDRIFGKVFLQEFVDARRRPAIQTAPQVLFSYRDPPLEIRDIQGIQKGDDFGFVTFVLFERHFTPQNREDCISHIQVFRNTLHFHIKASKAYMHQRMRKRVADFQKVLNRAKPDVELERKTATGRSFVRA
B3: ARPC3 (subunit of fission yeast Arp2/3 complex) (natural protein)
chain: MPAYHSSFLSLTDVPTTGNIAMLPLKTKFRGPAYPADESQMDIIDECIGLFRANCFFRNFEIKGPADRTLIYGTLFISECLGRVNGLNYRDAERQLNSLALENFSIPGSAGFPLNALYAPPLSPQDAEIMRTYLTQFRQELAYRLLSHVYATEKDHPSKWWTCFSKRRFMNKAL

Holding throughout (experiment): cryo-EM structure
Test [1] has as its target T1, ARPC1 (subunit of fission yeast Arp2/3 complex) (S. pombe, UniProt P78774).
T1 sequence: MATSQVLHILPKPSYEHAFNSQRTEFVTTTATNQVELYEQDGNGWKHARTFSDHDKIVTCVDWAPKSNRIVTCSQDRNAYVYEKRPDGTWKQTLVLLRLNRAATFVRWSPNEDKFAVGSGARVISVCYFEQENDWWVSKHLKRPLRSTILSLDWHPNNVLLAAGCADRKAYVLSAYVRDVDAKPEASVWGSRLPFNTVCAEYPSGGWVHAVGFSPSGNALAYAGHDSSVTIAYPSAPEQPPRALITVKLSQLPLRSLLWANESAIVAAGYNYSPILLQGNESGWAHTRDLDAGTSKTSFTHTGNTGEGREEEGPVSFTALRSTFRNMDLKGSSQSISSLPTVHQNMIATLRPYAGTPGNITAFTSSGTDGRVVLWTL

Test [2] concerns the target B2.
For test [3], the target named is Arp2 (subunit of fission yeast Arp2/3 complex) (S. pombe, UniProt Q9UUJ1).
Chain of Arp2 (subunit of fission yeast Arp2/3 complex) (Q9UUJ1 whole entry, one chain of several): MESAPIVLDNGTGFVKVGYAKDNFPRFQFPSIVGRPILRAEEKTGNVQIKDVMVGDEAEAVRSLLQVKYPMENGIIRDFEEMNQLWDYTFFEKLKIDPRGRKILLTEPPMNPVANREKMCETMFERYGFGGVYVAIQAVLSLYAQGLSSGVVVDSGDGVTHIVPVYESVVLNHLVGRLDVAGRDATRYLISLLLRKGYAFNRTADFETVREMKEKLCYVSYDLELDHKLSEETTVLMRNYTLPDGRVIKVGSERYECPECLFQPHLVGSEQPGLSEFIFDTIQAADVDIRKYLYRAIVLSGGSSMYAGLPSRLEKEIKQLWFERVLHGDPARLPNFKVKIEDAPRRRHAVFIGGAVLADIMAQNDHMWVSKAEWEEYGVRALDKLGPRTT

As for B1, the binding result in test [1] and in test [2] was “binds” in each case. On to B2, for which the binding result in test [1] and in test [3] was “binds” each time. With B3, the binding result in test [3] was “binds”.
